Assay results as given in the RNAGym collection of RNA variant scans (doi:10.7554/elife.80360).

B1: Twister Ribozyme (parent)
chain: AACACUGCCAAUGCCGGUCCCAAGCCCGGAUAAAAGUGGAGGGGGCGG

Variants of: B1
Assay: self-cleavage, relative activity (ratio to wild type); higher = more cleavage; co-transcriptional

Variant	self-cleavage
C5G G28U	0.279
C5G G28C	0.212
A4U G24U	0.0752
C5G C21G	0.155
U6A A30U	0.981
A4U G36A	0.056
A4U G36U	0.0439
U6A G29U	0.767
U6A G29A	0.787
C5A A35U	0.508
C5A A35G	0.328
U6C C8U	0.174
U6C C20A	0.0292
U6C C20U	0.169
C5A C25G	0.0605
U6A G7C	0.234
C5U G41A	0.214
U6C C19U	0.131
U6C C19G	0.0653
U6A A35C	1.04
C5G G29U	0.584
C5G G29A	0.458
C5G G29C	0.306
C5U U18C	0.24

Variant	self-cleavage
U6C C15A	0.169
U6C C15U	0.354
U6A A33G	0.881
U6C C9G	0.122
U6C C9U	0.0507
C5G G43A	0.153
C5G G43U	0.136
C5G G43C	0.122
U6C A35C	0.403
C5A G17A	0.0903
C5A G17U	0.0729
C5U G13C	0.13
C5A G7U	0.0804
C5A G7C	0.0608
U6A G17C	0.0763
U6A G17A	0.181
C5U A35U	0.91
C5U A35C	0.82
U6C C26A	0.0404
U6C C26G	0.125
C5U G17C	0.0605
C5U G17U	0.116
U6A G28C	0.524
U6A G28A	0.616

Variant	self-cleavage
C5G	0.85
C5U	0.887
C5A	0.66
C5G C20G	0.0308
C5G C20U	0.65
C5U C19G	0.107
U6A C46U	1.04
U6A C46G	0.988
U6A C46A	0.809
U6A G38U	0.188
U6A G38A	0.738
U6A G38C	0.594
A4U C27U	0.0803
A4U C27G	0.115
C5U A40U	0.146
C5U U37C	0.283
C5U U37A	0.547
C5U U37G	0.432
C5A G29C	0.279
C5A G42U	0.138
C5U G39A	0.167
C5U G39U	0.175
C5A A40G	0.0921
C5G U12A	0.821

Variant	self-cleavage
C5G U12C	0.896
C5U A11C	0.541
C5U A11U	0.564
C5A G24U	0.0619
C5A G24A	0.0547
C5U U6G	0.261
C5U U6A	0.674
A4U G42U	0.0714
U6A A34U	1.04
U6C C14G	0.0559
U6A G42C	0.291
C5G U6A	0.404
C5G U6G	0.232
U6C C21U	0.0537
C5A C27U	0.249
C5G A30U	0.883
C5G A30G	0.608
U6A A23C	0.097
U6A A23U	0.191
U6A A23G	0.14
C5A G41A	0.107
C5A G41U	0.132
C5G G47A	0.547
C5U A23C	0.116

Variant	self-cleavage
C5U A23G	0.23
C5U A23U	0.306
A4U G48U	0.147
C5A C20U	0.465
A4U G7C	0.0628
A4U G7A	0.1
C5U A30C	0.542
C5A A10G	0.705
C5A A10U	0.39
U6A A22U	0.816
U6A A22C	0.936
U6C A10C	0.772
U6C A10U	0.602
A4U G39U	0.0721
A4U G39C	0.0848
C5A C21A	0.0272
C5A C21U	0.0869
C5A C21G	0.113
C5U C25A	0.0792
A4U G47A	0.0604
A4U G47U	0.0997
C5A A34G	0.41
U6A C27G	0.11
U6A C27A	0.119

Variant	self-cleavage
U6A C27U	0.682
U6C A22U	0.141
C5U G28C	0.434
C5U G28U	0.67
C5A A33G	0.472
C5A A33C	0.439
C5G G24C	0.118
C5G G24U	0.112
A4U G41A	0.0938
A4U G41U	0.0632
C5G G41A	0.168
C5A U37G	0.671
C5A U37A	0.547
C5A U37C	0.124
A4U G43A	0.0748
A4U G43U	0.0514
C5A C46G	0.689
C5A G16C	0.098
C5A G16A	0.301
C5A G16U	0.237
C5U U12A	0.943
C5G G38A	0.298
U6A C8U	0.175
U6A C8A	0.104

Variant	self-cleavage
U6C C27A	0.0694
C5G C8A	0.15
U6C C25U	0.184
U6C C25G	0.0594
A4U U37G	0.624
A4U U37A	0.7
U6C A30U	0.493
C5U G16C	0.159
C5U G16A	0.584
C5G A33U	0.662
C5G A33C	0.565
C5G A34U	0.309
C5G A34G	0.384
C5G A34C	0.117
C5G U18C	0.196
C5G U18A	0.104
C5G U18G	0.0734
C5U A10C	1.06
C5U A10G	0.869
C5U A10U	0.816
C5U G44C	0.864
C5G G39C	0.106
C5G G39U	0.134
